{"source": "patent US20210040228", "test_system": "D11-CD8stk-IL2Rg_A5-Hinge-IL2Rb", "sequence (chain, as listed by the source, chain 1 of 2)": "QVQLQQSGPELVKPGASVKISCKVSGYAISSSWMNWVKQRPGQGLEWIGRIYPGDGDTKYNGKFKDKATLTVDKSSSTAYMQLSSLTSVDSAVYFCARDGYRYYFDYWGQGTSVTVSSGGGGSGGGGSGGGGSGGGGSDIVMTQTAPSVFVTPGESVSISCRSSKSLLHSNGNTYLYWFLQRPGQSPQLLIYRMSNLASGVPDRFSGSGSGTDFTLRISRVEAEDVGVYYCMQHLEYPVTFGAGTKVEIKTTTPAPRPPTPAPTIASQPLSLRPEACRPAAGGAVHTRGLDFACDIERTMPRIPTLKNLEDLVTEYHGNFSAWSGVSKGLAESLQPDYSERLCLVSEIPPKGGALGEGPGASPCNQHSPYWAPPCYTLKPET", "sequence (chain, as listed by the source, chain 2 of 2)": "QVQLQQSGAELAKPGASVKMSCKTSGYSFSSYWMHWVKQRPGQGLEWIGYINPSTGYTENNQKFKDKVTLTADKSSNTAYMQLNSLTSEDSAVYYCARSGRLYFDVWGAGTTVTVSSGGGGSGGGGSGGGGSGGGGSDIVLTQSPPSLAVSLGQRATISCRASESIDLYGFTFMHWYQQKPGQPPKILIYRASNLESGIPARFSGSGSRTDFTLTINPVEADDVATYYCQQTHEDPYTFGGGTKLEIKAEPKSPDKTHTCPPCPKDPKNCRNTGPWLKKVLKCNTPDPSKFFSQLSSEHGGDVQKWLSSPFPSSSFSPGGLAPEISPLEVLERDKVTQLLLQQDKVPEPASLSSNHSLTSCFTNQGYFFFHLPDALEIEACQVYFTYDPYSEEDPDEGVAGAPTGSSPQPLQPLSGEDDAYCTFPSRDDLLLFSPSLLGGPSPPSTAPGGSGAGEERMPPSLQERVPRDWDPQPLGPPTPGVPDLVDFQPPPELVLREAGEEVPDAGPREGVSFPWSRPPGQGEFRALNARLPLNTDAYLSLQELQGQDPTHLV", "data": [{"substance": "prostate-specific antigen (PSA)", "values": [{"measurement": "phosphorylation of Y694 of STAT5 (phosphoflow), 500 ng/mL PSA for 1 or 4 hours", "result": "In the cells expressing the PSA CCR, the presence of PSA lead to increasing STAT5 phosphorylation with time"}]}]}
